Data: US20150328292A1, “CASPASE POLYPEPTIDES HAVING MODIFIED ACTIVITY AND USES THEREOF” (BELLICUM PHARMACEUTICALS, INC., priority 2014, published 2015)
Substitutions are numbered along the chain they refer to. Names and notes keep the numbering of the source. “Also recorded” adds a separate entry of the source. Read-outs that look alike come from different tables or passages of the source.

Experiments:
[1] = cited from earlier work; for safety and tolerability: healthy volunteers, 0.01-1.0 mg/kg
CD3+ΔCD19+ cells = assay: CASPALLO phase I clinical trial, AP1903 in patients with GvHD after iCasp9 T cells; format: in vivo, human
[2] = biological target: chimeric caspase-9 polypeptide (Homo sapiens, UniProt P55211+P62942, F37V); assay: AP1903-triggered apoptosis/signaling of cells expressing chimeric caspase-9 polypeptide; format: cell-based
Sequence of chimeric caspase-9 polypeptide (P62942 2-108 F37V limits assumed): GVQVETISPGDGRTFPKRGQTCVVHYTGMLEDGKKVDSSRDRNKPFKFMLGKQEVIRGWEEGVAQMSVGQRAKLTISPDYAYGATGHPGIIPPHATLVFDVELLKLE
Sequence of chimeric caspase-9 polypeptide (P55211 135-416 limits assumed): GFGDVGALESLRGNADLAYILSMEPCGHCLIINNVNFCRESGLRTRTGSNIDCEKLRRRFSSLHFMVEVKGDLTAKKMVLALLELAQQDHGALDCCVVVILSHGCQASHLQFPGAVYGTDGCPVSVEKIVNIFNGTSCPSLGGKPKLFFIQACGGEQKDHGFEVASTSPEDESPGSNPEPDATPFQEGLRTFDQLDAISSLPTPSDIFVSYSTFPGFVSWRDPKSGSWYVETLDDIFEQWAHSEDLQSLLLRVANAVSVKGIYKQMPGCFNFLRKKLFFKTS

human CD3+CD19+ T cells = assay: AP1903 dose-dependent elimination in vivo of transduced T cells in NSG mice; set-up: species or system mouse
Protocol: T cells were transduced with SFG-iCasp9-2A-ΔCD19 retrovirus and injected i.v. into immune deficient mice (NSG). […] After an additional 24 hours, mice were sacrificed and lymphocytes from the spleen (FIG. 61A) and peripheral blood (FIG. 61B) were isolated and analyzed by flow cytometry for the frequency of human CD3+CD19+ T cells.
T cells were transduced with SFG-iCasp9-D330E-2A-ΔCD19 retrovirus and injected i.v. into immune deficient mice (NSG). […] After an additional 24 hours, mice were sacrificed and lymphocytes from the spleen (A) were isolated and analyzed by flow cytometry for the frequency of human CD3+CD19+ T cells.

HEK293T/16 cells [3] = assay: Western blot of protein expression and proteolysis; format: cell-based, human
Protocol: The lysates were collected and lysed on ice for 30 min. After pelleting cell debris, protein concentrations from overlying supernatants were measured in 96-well plates with BCA™ Protein Assay as recommended by the manufacturer. 30 μg of proteins were boiled in Laemmli sample buffer (Bio-Rad, Hercules, Calif.) with 2.5% 2-mercaptoethanol for 5 min at 95° C. before being separated by Criterion TGX 10% Tris/glylcine protein gel. Membranes were probed with 1/1000 rabbit anti-human caspase-9 polyclonal antibody followed by 1/10,000 HRP-conjugated goat anti-rabbit IgG F(ab′)2 secondary antibody (Bio-Rad). Protein bands were detected using Supersignal West Femto chemiluminescent substrate. To ensure equivalent sample loading, blots were stripped at 65° C. for 1 hour with Restore PLUS Western Blot Stripping Buffer before labeling with 1/10,000 rabbit anti-actin polyclonal antibody. Unless otherwise stated, all the reagents were purchased from Thermo Scientific.

HEK293T/16 cells [4] = assay: SEAP reporter-based surrogate killing assay (basal activity and AP1903 IC50); format: cell-based, human; conditions: for relative SEAP activity Units (basal activity): no AP1903, higher SEAP = lower basal activity; for basal activity / basal signaling (in words): AP1903-independent SEAP activity, vs wild type
In short: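 HEK293T/16 cells transiently co-transfected with iCasp9 mutant plasmid (800 ng–2 μg) and SRα-driven SEAP plasmid (500 ng) per million cells. Supernatants heat-treated 65 °C, 45 min, then SEAP read by 4-MUP hydrolysis fluorescence (ex/em 355/460 nm). Lower SEAP signal indicates higher iCasp9 activity, i.e. cell killing.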

PG13 packaging cells = format: cell-based
Activated T cells = assay: Control of T cell proliferation in vitro over 10 days with AP1903; format: cell-based, human; conditions: AP1903 on days 0 and 4, 10 days

CC[C@H](C(=O)N1CCCC[C@H]1C(=O)O[C@H](CCc1ccc(OC)c(OC)c1)c1cccc(OCC(=O)NCCNC(=O)COc2cccc([C@@H](CCc3ccc(OC)c(OC)c3)OC(=O)[C@@H]3CCCCN3C(=O)[C@@H](CC)c3cc(OC)c(OC)c(OC)c3)c2)c1)c1cc(OC)c(OC)c(OC)c1 (relative stereo) [AP1903, 2-Piperidinecarboxylic acid, 1-[(2S)-1-oxo-2-(3,4,5-trimethoxyphenyl)butyl]-, 1,2-ethanediylbis[imino(2-oxo-2,1-ethanediyl)oxy-3,1-phenylene[(1R)-3-(3,4-dimethoxyphenyl)propylidene]]ester, [2S-[1(R*),2R*[S*[S*[1(R*),2R*]]]]]-(9Cl)]
adverse event considered possibly related ([1]; 1 volunteer at 1.0 mg/kg, facial flushing): vasodilatation
plasma level, % of maximal concentration ([1]; 2 hours post-dose): ~7%
plasma level, % of maximal concentration ([1]; 10 hours post-dose): ~1%
safety and tolerability [1]: proven safe in healthy volunteers; also recorded: safe and well tolerated at all dose levels; also recorded: proven safe at the required dose; also recorded: substantially no significant adverse effects
safety and tolerability ([1]; listed as API903): No serious adverse events
time to normalization of bilirubin concentration (CD3+ΔCD19+ cells; patient 1, post-treatment): ≤ 24 h
time to disappearance of skin rash (CD3+ΔCD19+ cells; patient 2, post treatment): ≤ 24 h
time to resolution of skin and liver aGvHD (CD3+ΔCD19+ cells; patients with grade I/II aGVHD): ≤ 24 h
ablation of CD3+ΔCD19+ cells (CD3+ΔCD19+ cells; within 30 minutes of infusion, 0.4 mg/kg): > 90%
further reduction of CD3+ΔCD19+ cells (CD3+ΔCD19+ cells; within 24 hours): further log reduction
amount of AP1903 needed in vitro for effective signaling of cells [2]: 0.1 to 10 nM
AP1903 dose sufficient to eliminate most modified T cells in vivo (human CD3+CD19+ T cells; T cells with wild-type iCasp9, i.p., 24 hours): 0.5 mg/kg

B1: D330A-N405Q: ΔCasp9 (res. 135-416) D330A N405Q, SEQ ID NO: 28 (protein)
chain: GFGDVGALESLRGNADLAYILSMEPCGHCLIINNVNFCRESGLRTRTGSNIDCEKLRRRFSSLHFMVEVKGDLTAKKMVLALLELARQDHGALDCCVVVILSHGCQASHLQFPGAVYGTDGCPVSVEKIVNIFNGTSCPSLGGKPKLFFIQACGGEQKDHGFEVASTSPEDESPGSNPEPDATPFQEGLRTFDQLAAISSLPTPSDIFVSYSTFPGFVSWRDPKSGSWYVETLDDIFEQWAHSEDLQSLLLRVANAVSVKGIYKQMPGCFQFLRKKLFFKTS
cleavage in response to AP1903 (HEK293T/16 cells [3]): impaired cleavage
relative SEAP activity Units (basal activity) (HEK293T/16 cells [4]; 1 μg iCasp9 per million cells): 205772
relative SEAP activity Units (basal activity) (HEK293T/16 cells [4]; 2 μg iCasp9 per million cells): 174366
basal activity / basal signaling (in words) (HEK293T/16 cells [4]): intermediate; also recorded: lower basal signaling compared to the wild-type caspase-9
basal activity / basal signaling (in words) (HEK293T/16 cells [4]; listed as D330A N405Q): low to undetectable basal activity

B2: N405Q: ΔCasp9 (res. 135-416) N405Q, SEQ ID NO: 26 (protein)
chain: B1 chain with A196D
CD19 mean fluorescence intensity (MFI) of transduced PG13 cells (PG13 packaging cells): higher levels of CD19; also recorded: enhanced CD19 mean fluorescence intensity; also recorded: higher CD19 MFIs than the other cohorts
viral titers (PG13 packaging cells): higher viral titers
T cell proliferation and survival (Activated T cells): indistinguishable from wild type caspase-9 polypeptide or D330A
cleavage in response to AP1903 (HEK293T/16 cells [3]): impaired cleavage
relative SEAP activity Units (basal activity) (HEK293T/16 cells [4]; 1 μg iCasp9 per million cells): 179081
relative SEAP activity Units (basal activity) (HEK293T/16 cells [4]; 2 μg iCasp9 per million cells): 175529

B3: D330E: chimeric modified caspase-9 polypeptide variant (protein)
chain: VDGFGDVGALESLRGNADLAYILSMEPCGHCLIINNVNFCRESGLRTRTGSNIDCEKLRRRFSSLHFMVEVKGDLTAKKMVLALLELARQDHGALDCCVVVILSHGCQASHLQFPGAVYGTDGCPVSVEKIVNIFNGTSCPSLGGKPKLFFIQACGGEQKDHGFEVASTSPEDESPGSNPEPDATPFQEGLRTFDQLEAISSLPTPSDIFVSYSTFPGFVSWRDPKSGSWYVETLDDIFEQWAHSEDLQSLLLRVANAVSVKGIYKQMPGCFNFLRKKLFFKTSASRA
CD19 mean fluorescence intensity (MFI) of transduced PG13 cells (PG13 packaging cells): enhanced CD19 mean fluorescence intensity
viral titers (PG13 packaging cells): higher viral titers
in vivo cytotoxicity profile in response to AP1903 (human CD3+CD19+ T cells; NSG mice, AP1903 0-5 mg/kg i.p., spleen): titratable in vivo
basal activity / basal signaling (in words) (HEK293T/16 cells [4]): less basal activity than wild type caspase-9; also recorded: statistically lower basal signaling
